Assay [1] has as its target T1, human CD38 (full length, on cells) (human, UniProt P28907 1-300). Description: cell-based or functional assay.
Assay [2] concerns the target T2, recombinant human CD38 his tagged (extracellular domain) (human, UniProt P28907 43-300).
T2 construct: also called rhCD38; rhCD38-his; not shown: Histidine tag
Description: Octet BLI, affinity, monovalent human CD38-HIS; IgG1.

Assay [3] concerns the target T1, human CD38 (full length, on cells). Description: flow cytometry titration on human PBMC, gated on CD8-positive cells.
The target is the same in assay [4]. Description: flow cytometry titration on human PBMC, gated on CD4-positive cells.
Assay [5] deals with T2, recombinant human CD38 his tagged …. Description: SPR Biacore affinity, rhCD38-his.
Description: (§1) Anti-human antibody was initially immobilised across all flow cells in analysis buffer (pH 7.4, 10mM HEPES, 150mM NaCl, 3mM EDTA, 0.05% Tween 20) to an RU of between 12,000-14,000 over 10 minutes. […] Dissociation was performed in analysis buffer over 10 minutes. Regeneration steps between sample concentrations were performed in 3M MgCl₂, three times for 0.5 minutes. A flow rate of 25 μl/min was maintained throughout the process. Kinetics data were fit using a global fit on the analysis software provided by Biacore with reference subtraction.
The target of assay [6] is T1, human CD38 (full length, on cells). Nature of the assay: cell-based or functional assay. This is another data set of the same source.
Assay [7] has as its target T3, Cynomolgus monkey CD38 (on T cells) (Cynomolgus monkey, UniProt Q5VAN0 1-301).
T3 construct: whole, on cells; also called cyno CD38
Nature of the assay: flow cytometry titration on cynomolgus T cells, gated on CD4-positive cells.

The target in assay [8] is T3, Cynomolgus monkey CD38 (on T cells). Description: flow cytometry titration on cynomolgus T cells, gated on CD8-positive cells.
Assay [9] addresses T1, human CD38 (full length, on cells). Description: cell-based or functional assay. The source holds these as a separate data set.
The target of assay [10] is T2, recombinant human CD38 his tagged …. Nature of the assay: SPR Biacore 2000; IgG1 captured, rhCD38-his as analyte.
Description: as §1
The target in assay [11] is T1, human CD38 (full length, on cells). Nature of the assay: cell-based or functional assay. This is another data set of the same source.
Assay [12] deals with T2, recombinant human CD38 his tagged …. Nature of the assay: Octet BLI, avidity; rhCD38-his on Ni-NTA sensor, IgG1 in solution.
Description: Avidity binding measurements of anti-CD38 Antibodies: Ni-NTA sensors were equilibrated off-line in assay buffer for 30 minutes and then monitored on-line for 60 seconds for baseline establishment. […] Then the antibody was associated at different concentrations (as described in FIGS. 25 and 30) for 30-50 minutes. Afterwards they were transferred to assay buffer for 20-30 min for off-rate measurement. Kinetics data were fit using a 1:1 binding model in the data analysis software provided by ForteBio.
Assay [13] shares this target. Description: Octet BLI affinity, rhCD38.
In assay [14] the target is T1, human CD38 (full length, on cells). Description: flow cytometry, binding to Daudi cells.
In assay [15] the target is T2, recombinant human CD38 his tagged …. Nature of the assay: Octet BLI, affinity, monovalent human CD38-HIS; IgG4.
For assay [16], the target named is T1, human CD38 (full length, on cells). Nature of the assay: cell-based or functional assay. This is another data set of the same source.
For assay [17], the target named is T2, recombinant human CD38 his tagged …. Nature of the assay: Octet BLI affinity, rhCD38. The source holds these as a separate data set.
Assay [18] shares this target. Description: SPR Biacore affinity, rhCD38-his. This is another data set of the same source.
Description: as §1
The target of assay [19] is T1, human CD38 (full length, on cells). Description: flow cytometry, binding to Daudi cells. The source holds these as a separate data set.
Assay [20] addresses T2, recombinant human CD38 his tagged …. Nature of the assay: summary, human CD38 extracellular protein.
The target of assay [21] is T1, human CD38 (full length, on cells). Nature of the assay: flow cytometry titration on human cells, gated on CD4-positive cells.
Description: (§2) Unbound primary antibody was removed by washing followed by staining with a secondary antibody (5 μg/ml) 30 minutes on ice. All samples were stained in triplicates with appropriate CD3, CD4 and CD8 cross-reactive antibodies. Samples were measured by flow cytometry. For data analysis live cells were gated using FSC vs SSC parameters during sample acquisition. Mean fluorescence intensities (MFI) of stained cells were plotted on an XY chart, graphing MFI against the log of the concentration and the data fit to a non-linear regression curve from which the EC50 was calculated.
Assay [22] has the same target. Description: flow cytometry titration on human cells, gated on CD8-positive cells.
Description: as §2
Assay [23] concerns the target T3, Cynomolgus monkey CD38 (on T cells). Nature of the assay: flow cytometry titration on cynomolgus T cells, gated on CD4-positive and on CD8-positive cells.
Description: as §2
Assay [24] concerns the target T2, recombinant human CD38 his tagged …. Nature of the assay: Octet BLI, affinity, monovalent human CD38-HIS; yeast produced.

Substitutions are numbered along the chain they refer to. “And” between values parts separate entries of the source, which are not always exact repeats. Identical values can stand only once. Like-named read-outs stand apart in the source and are kept apart here.

T3 sequence (Q5VAN0 whole entry): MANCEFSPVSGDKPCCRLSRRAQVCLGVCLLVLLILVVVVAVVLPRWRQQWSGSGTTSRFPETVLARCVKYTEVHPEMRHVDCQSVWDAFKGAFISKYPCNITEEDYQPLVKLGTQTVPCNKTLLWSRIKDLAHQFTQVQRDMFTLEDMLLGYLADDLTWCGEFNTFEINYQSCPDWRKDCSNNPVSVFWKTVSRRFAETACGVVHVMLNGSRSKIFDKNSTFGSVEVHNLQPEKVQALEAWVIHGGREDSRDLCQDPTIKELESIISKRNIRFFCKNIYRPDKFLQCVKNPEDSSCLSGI

B1: aCD38-b-348 (human IgG1) (antibody, V domains shown)
VH: QLQLQESGPGLVKPSETLSLTCTVSGGSISSSDYYWGWIRQPPGKGLEWIGSIYYSGSTYYNPSLKSRVTISVDTSKNQFSLKLSSVTAADTAVYYCARGQYSSGWYAYPFDMWGQGTMVTVSS
VL: EIVLTQSPGTLSLSPGERATLSCRASQSVRSSYLAWYQQKPGQAPRLLIYGASSRATGIPDRFSGSGSGTDFTLTISRLEPEDFAVYYCQQDGNVYTFGGGTKVEIK
notes: Human IgG1
B1: the “ADCC EC50, Daudi target cells” value in assay [1] is 0.00032 µg/mL and 0.0008 µg/mL and 0.00042 µg/mL. In addition, the Kd in assay [2] is 8.81 nM; in assay [5], 2 nM; in [10], 2 nM; in [12] it was 0.177 nM; in assay [13], 5.79 nM. Besides, the half-maximal effective concentration (EC50 (read off the curve)) is approximately 0.4 nM in assay [3], approximately 0.4 nM in assay [4], approximately 0.7 µg/mL in assay [7] and approximately 0.8 µg/mL in assay [8]. The “CDC EC50, Raji cells, 10% complement” value in assay [6] is 0.3 µg/mL. Moreover, the “CDC EC50, Raji cells, 10% complement (repeat)” value in assay [6] was found to be 0.17 µg/mL. Further, in [9], the “CDC EC50, Daudi cells, 10% complement” value is 0.17 µg/mL and 0.34 µg/mL and 0.26 µg/mL. The “ADCC target lysis EC50” value in [11] is 0.0059 µg/mL. Also, in assay [11], the “ADCC target lysis, max. % lysis” value was determined as 44%. Further, it took 0.341 µg/mL to reach a half-maximal effect in [14] (EC50). The “Max MFI” value in assay [14] is 2320 MFI.

B2: aCD38-b-348 (IgG4) (antibody, V domains shown)
VH: B1 VH
VL: B1 VL
As for B2, in assay [15], the Kd was 9.24 nM.

B3: aCD38-b-348-m4 (antibody, IgG1, V domains shown)
VH: B1 VH
VL: B1 VL with D92E
As to B3, the Kd in assay [5] was 27 nM. Besides, in assay [11], the “ADCC target lysis EC50” value was determined as 0.0014 µg/mL and the “ADCC target lysis, max. % lysis” value stood at 38%. Besides, the Kd in assay [13] came out at 70.1 nM. In addition, in assay [14], the EC50 stood at 0.299 µg/mL and the “Max MFI” value was found to be 2020 MFI.

B4: aCD38-b-329-m6 (antibody, IgG1, V domains shown)
VH: B1 VH
VL: B1 VL with G93E, N94A, Y96F
Regarding B4, in assay [16], the “ADCC target lysis EC50” value was 0.0024 µg/mL and the “ADCC target lysis, max. % lysis” value stood at 47%. For the same molecule, the Kd in assay [17] worked out at 19.9 nM. The Kd in assay [18] amounted to 4.7 nM. In assay [19], the response was half-maximal at 0.651 µg/mL (EC50) and the “Max MFI” value was 2300 MFI.

B5: aCD38-b-329-m7 (antibody, IgG1, V domains shown)
VH: B1 VH
VL: B1 VL with G93S, N94A, Y96F
B5: in assay [16], the “ADCC target lysis EC50” value came to 0.0035 µg/mL and the “ADCC target lysis, max. % lysis” value is 43%. In addition, in [17], the Kd turned out to be 26 nM. Moreover, in assay [18], the Kd is 4.9 nM. In addition, in assay [19], a half-maximal response (EC50) required 0.745 µg/mL and the “Max MFI” value came out at 2210 MFI.

B6: aCD38-b-348-m2 (antibody, IgG1, V domains shown)
VH: B1 VH
VL: B1 VL with G93S
With B6, the Kd in assay [5] turned out to be 6.8 nM. In [11], the “ADCC target lysis EC50” value stood at 0.0025 µg/mL and the “ADCC target lysis, max. % lysis” value is 44%. The Kd in assay [13] was determined as 39.9 nM. For the same molecule, in [14], the concentration giving a half-maximal response (EC50) was 0.499 µg/mL and the “Max MFI” value turned out to be 2220 MFI.

B7: aCD38-b-348-m1 (antibody, IgG1, V domains shown)
VH: B1 VH
VL: B1 VL with D92E, G93A
notes: also called aCD38-b-348-ml
As to B7, in assay [5], the Kd was 63 nM. For the same molecule, in assay [11], the “ADCC target lysis EC50” value turned out to be 0.0028 µg/mL and the “ADCC target lysis, max. % lysis” value is 38%. In addition, the Kd in assay [13] turned out to be 24.7 nM. Also, in [14], the concentration for a half-maximal effect (EC50) was 0.485 µg/mL and the “Max MFI” value is 1610 MFI.

B8: aCD38-b-348-m3 (antibody, IgG1, V domains shown)
VH: B1 VH
VL: B1 VL with G93A
On to B8, for which, in assay [5], the Kd was 28 nM. Also, in assay [11], the “ADCC target lysis EC50” value amounted to 0.0043 µg/mL and the “ADCC target lysis, max. % lysis” value amounted to 39%. In addition, in assay [13], the Kd came out at 55.1 nM. Besides, in [14], the midpoint of the response, the EC50, lay at 0.558 µg/mL and the “Max MFI” value was determined as 2100 MFI.

B9: aCD38-a-327 (human IgG1) (antibody, V domains shown)
VH: QVQLQESGPGLVKPSQTLSLTCTVSGGSISSGGYYWSWIRQHPGKGLEWIGYIYYSGSTYYNPSLKSRVTISVDTSKNQFSLKLSSVTAADTAVYYCARAKSELVLPYYYYMDVWGKGTTVTVSS
VL: not shown
notes: Human IgG1
As to B9, in assay [1], the “ADCC EC50, Daudi target cells” value amounted to 0.03 µg/mL. Further, in assay [1], the “ADCC max. lysis, Daudi target cells” value is 55%. The Kd in assay [2] was 2.3 nM; in [10], 1 nM; in assay [20], approximately 1 nM; in [12], 0.0181 nM.

B10: aCD38-a-327 (IgG4) (antibody, V domains shown)
VH: B9 VH
VL: not shown
For the molecule B10, the Kd in [15] was found to be 2.99 nM.

B11: aCD38-a-306 (human IgG1) (antibody, V domains shown)
VH: not shown
VL: DIQMTQSPSSLSASVGDRVTITCRASQSISSYLNWYQQKPGKAPKLLIYGASSLQSGVPSRFSGSGSGTDFTLTISSLQPEDFATYYCQQRSSTPITFGGGTKVEIK
notes: Human IgG1
Consider B11, for which, in assay [1], the “ADCC EC50, Daudi target cells” value was 0.0013 µg/mL and the “ADCC max. lysis, Daudi target cells” value was found to be 43%. Further, in [9], the “CDC EC50, Daudi cells, 10% complement” value came out at 0.19 µg/mL and the “CDC max. lysis, Daudi cells, 10% complement” value amounted to 16.9%. In addition, the Kd in [10] was 1.2 nM. In assay [21], the “EC50 (read off the curve)” value was approximately 0.4 µg/mL. The concentration for a half-maximal effect (EC50 (read off the curve)) in assay [22] was approximately 0.2 µg/mL. For the same molecule, the Kd in assay [12] was 0.0735 nM. In addition, the binding result in assay [23] was “no binding (tested: about 20 µg/ml (log 1.3))”.

B12: aCD38-a-306 (yeast produced) (antibody, V domains shown)
VH: not shown
VL: B11 VL
As to B12, the Kd in assay [24] is 48 nM.
